No end group written: not given here.
T1: GST-tagged yeast Mtr4 short arch (GST-Mtr4^SA, residues 638–842), wild type (S. cerevisiae, UniProt P47047 638-842)
T1 sequence (looked up): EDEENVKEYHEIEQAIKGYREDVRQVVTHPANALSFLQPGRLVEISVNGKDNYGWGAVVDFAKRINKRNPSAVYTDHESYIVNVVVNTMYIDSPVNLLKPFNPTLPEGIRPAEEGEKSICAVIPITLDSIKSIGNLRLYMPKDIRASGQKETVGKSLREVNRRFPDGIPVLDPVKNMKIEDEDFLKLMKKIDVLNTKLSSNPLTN

T2: Mtr4-ΔN (helicase region of Mtr4, residues 81–1073) (S. cerevisiae, UniProt P47047 81-1073)
T2 sequence (looked up): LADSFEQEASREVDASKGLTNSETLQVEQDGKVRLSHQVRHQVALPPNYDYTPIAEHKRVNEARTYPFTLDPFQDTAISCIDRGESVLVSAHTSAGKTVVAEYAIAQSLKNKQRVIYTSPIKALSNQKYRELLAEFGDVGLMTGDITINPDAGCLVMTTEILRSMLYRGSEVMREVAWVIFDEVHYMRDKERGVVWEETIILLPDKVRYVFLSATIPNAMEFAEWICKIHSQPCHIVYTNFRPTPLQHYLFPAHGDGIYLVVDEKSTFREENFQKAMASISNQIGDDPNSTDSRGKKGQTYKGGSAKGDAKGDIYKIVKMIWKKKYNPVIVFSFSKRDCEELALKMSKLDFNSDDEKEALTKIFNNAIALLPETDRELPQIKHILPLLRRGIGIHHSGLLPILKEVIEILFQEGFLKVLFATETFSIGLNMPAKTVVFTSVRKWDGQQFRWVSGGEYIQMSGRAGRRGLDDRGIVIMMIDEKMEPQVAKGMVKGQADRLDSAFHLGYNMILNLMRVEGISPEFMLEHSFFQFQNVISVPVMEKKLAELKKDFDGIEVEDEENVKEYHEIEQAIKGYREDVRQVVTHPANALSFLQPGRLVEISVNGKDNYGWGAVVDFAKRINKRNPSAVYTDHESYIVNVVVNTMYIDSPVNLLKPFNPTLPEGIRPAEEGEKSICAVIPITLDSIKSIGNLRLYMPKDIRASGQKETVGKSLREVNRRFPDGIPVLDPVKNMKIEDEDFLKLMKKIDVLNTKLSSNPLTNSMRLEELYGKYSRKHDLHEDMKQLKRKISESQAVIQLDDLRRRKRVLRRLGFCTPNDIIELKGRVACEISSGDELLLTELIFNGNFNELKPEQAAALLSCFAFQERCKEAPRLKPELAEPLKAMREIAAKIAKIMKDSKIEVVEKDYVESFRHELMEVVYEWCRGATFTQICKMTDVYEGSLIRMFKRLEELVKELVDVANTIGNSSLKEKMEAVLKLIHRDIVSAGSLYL


What was measured:
[1] = target: T1, GST-tagged yeast Mtr4 short arch …; assay: pull-down
[2] = target: T2, Mtr4-ΔN (helicase region of Mtr4, …); assay: ITC

| Binder | binding result [1] | Kd [2] [µM] |
| --- | --- | --- |
| Z-tagged Nop53 (residues 48–99) (domain or fragment, S. cerevisiae, UniProt Q12080 48-99, looked up, also: Z-tagged) GTSDITSLQNDALFHVDVEGDEILKNKLIKRKQIKKVLKSKEILDAVKTNSK | binds |  |
| HVNNDQLFFVDDGGNEDSQDKNEDTMDVDDEDD (domain or fragment, S. cerevisiae, UniProt P40362 78-110, looked up) [Utp18_(prot) (Utp18 residues 78–110)] |  | ~20 |
| DALFHVDVEGDEILKNKLIKRKQIKKVLKSKEIL (domain or fragment, S. cerevisiae, UniProt Q12080 58-91, looked up) [Nop53_(prot) (Nop53 residues 58–91)] |  | ~18 |

From article PMC5688999 (RNA, 2017)
